Assay results as given in publication doi:10.1101/2020.03.29.013490.

Tests used:
[1] = biological target: recombinant human angiotensin-converting enzyme-2 (ACE2) (human) (UniProt Q9BYF1); assay: BLI
[2] = biological target: 2019-nCoV spike 1 protein (S1) (2019-nCoV (SARS-CoV-2)); assay: BLI

recombinant human angiotensin-converting enzyme-2 (ACE2) (human), sequence (Q9BYF1 18-740): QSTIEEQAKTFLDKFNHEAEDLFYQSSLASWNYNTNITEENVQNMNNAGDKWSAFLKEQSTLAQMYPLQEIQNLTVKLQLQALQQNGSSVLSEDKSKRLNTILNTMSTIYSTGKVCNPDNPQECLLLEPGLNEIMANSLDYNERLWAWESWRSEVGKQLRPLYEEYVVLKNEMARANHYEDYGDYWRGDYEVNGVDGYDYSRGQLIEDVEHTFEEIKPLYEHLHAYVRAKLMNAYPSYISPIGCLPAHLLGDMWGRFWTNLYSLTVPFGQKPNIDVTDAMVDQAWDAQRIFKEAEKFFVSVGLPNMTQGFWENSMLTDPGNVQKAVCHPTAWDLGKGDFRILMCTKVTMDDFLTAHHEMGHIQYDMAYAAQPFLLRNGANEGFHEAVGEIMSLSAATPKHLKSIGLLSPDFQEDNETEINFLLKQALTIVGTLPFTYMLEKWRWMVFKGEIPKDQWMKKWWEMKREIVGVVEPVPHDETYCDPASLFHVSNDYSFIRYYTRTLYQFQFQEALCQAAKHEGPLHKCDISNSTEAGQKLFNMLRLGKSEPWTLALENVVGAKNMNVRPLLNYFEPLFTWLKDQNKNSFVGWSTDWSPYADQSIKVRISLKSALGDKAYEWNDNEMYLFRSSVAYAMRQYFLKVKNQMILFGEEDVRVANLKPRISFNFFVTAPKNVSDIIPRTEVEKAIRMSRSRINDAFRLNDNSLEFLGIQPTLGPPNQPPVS
human defensin 5 (HD5), sequence (Q01523 63-94): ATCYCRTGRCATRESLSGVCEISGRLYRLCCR

| Substance | Kd [1] | Kd [2] |
| --- | --- | --- |
| 2019-nCoV spike 1 protein (S1) (domain or fragment) | 0.00268 µM |  |
| human defensin 5 (HD5) (from UniProt Q01523 63-94) (peptide) | 0.0393 µM | 0.0828 µM |
